Here are results for 167 variants from the RNAGym collection of RNA variant scans (doi:10.7554/elife.80360).

Sequences and labels used below:
B1: CPEB3 Ribozyme (parent)
chain: GGGGGCCACAGCAGAAGCGUUCACGUCGCGGCCCCUGUCAGAUUCUGGUGAAUCUGCGAAUUCUGCUGU

In this series the parent is B1. In words: self-cleavage, relative activity (ratio to wild type); higher = more cleavage; co-transcriptional.
C35U U69C: the self-cleavage turned out to be 1.08.
Then C35U U69G, with 1.01; and C35U U38G, with 0.184; and C35U U38C, with 0.876.
For the variant C35U U38A, the self-cleavage was 0.901.
The figure for U36G U55A is 0.238; for C35U U61A it is 0.596.
Regarding C35U U61G, the self-cleavage stood at 0.854.
Then G37C C45U, with 0.203; and G37C C45A, with 0.168; and U36C G41A, with 0.507.
For the variant U36C G41C, the self-cleavage turned out to be 0.552.
Then U36C G41U, with 0.664; and G37A C45U, with 0.351; and G37A C45G, with 0.281.
Then U36A U43A, with 0.249; and U36A U43G, with 0.214; and C35U U62A, with 0.813.
The figure for C35U U62G is 0.804; for U36C U46A it is 0.922.
U36C U46C: the self-cleavage was found to be 0.987.
Then U36A G47U, with 0.321; and U36A G47C, with 0.269; and U36A G47A, with 0.295.
Then U36G C39G, with 0.24; and U36G C39U, with 0.218; and U36G C39A, with 0.204.
Then C35U U49G, with 0.909.
As for C35U U49C, the self-cleavage stood at 0.956.
The figure for U36G G47C is 0.293; for U36G G47A it is 0.252.
Then U36G U44G, with 0.219.
Regarding U36G U44A, the self-cleavage is 0.246.
U36C C39G: the self-cleavage turned out to be 0.847.
Then C35U G50A, with 0.974; and C35U G50C, with 0.979.
Then U36C U43C, with 0.856; and U36C U43A, with 0.787.
As to G37C A52G, the self-cleavage worked out at 0.264.
Then G37C A52C, with 0.216.
Then U36G G48C, with 0.266; and U36G G48A, with 0.236.
The figure for U36A G58C is 0.226; for U36A G58U it is 0.253.
As for G37C C54A, the self-cleavage was 0.201.
Consider G37C C54U, for which the self-cleavage worked out at 0.25.
Then U36A G48C, with 0.291.
The figure for U36A G48U is 0.311; for U36G C66U it is 0.22.
Take U36G C66G: the self-cleavage was 0.167.
The figure for U36G C66A is 0.232; for U36G C63U it is 0.315.
The figure for U36G C63G is 0.181; for G37C C57A it is 0.242.
Then G37C C57U, with 0.192.
For the variant G37C C57G, the self-cleavage was 0.189.
The figure for U36A U64G is 0.202; for U36A U64A it is 0.232.
The figure for G37A A40G is 0.334; for G37A A40U it is 0.244; for G37A A40C it is 0.261.
For the variant U36G U61A, the self-cleavage stood at 0.341.
As to C35U G48A, the self-cleavage is 1.01.
Then C35U G48U, with 0.987.
The figure for C35U G48C is 0.964.
The figure for U36C A51C is 0.88; for U36C A51U it is 0.879.
As to U36C U49C, the self-cleavage came to 0.863.
Regarding U36C U49G, the self-cleavage was 0.848.
The figure for U36C U49A is 0.923; for G37A U43A it is 0.261; for G37A U43C it is 0.261.
G37A U43G: the self-cleavage came to 0.359.
The figure for U36G A42G is 0.225.
Then U36A U67A, with 0.246; and U36A U67G, with 0.181.
Then U36A U67C, with 0.215; and U36A C66A, with 0.294.
With U36A C66U, the self-cleavage was determined as 0.187.
On to G37A U46C, for which the self-cleavage is 0.338.
The figure for G37A U46A is 0.375.
As for G37A U46G, the self-cleavage worked out at 0.281.
Then C35U G56U, with 0.859; and C35U G56C, with 0.651; and C35U G56A, with 0.819.
Then U36A U44C, with 0.295; and G37A G58C, with 0.344.
Then G37A U67A, with 0.389; and G37C G41U, with 0.201; and U36C A60U, with 0.376.
Regarding U36C A60C, the self-cleavage came out at 0.268.
The figure for U36C A60G is 0.636; for G37A G48U it is 0.251; for U36C A40G it is 0.858.
As for U36C A40C, the self-cleavage stood at 0.506.
The figure for U36C A40U is 0.64; for U36A C54U it is 0.35; for U36G U46C it is 0.21.
Then U36C C66G, with 0.621; and U36C C66A, with 0.603.
For G37C A59C, the self-cleavage is 0.183.
As to G37C A59G, the self-cleavage is 0.234.
The figure for G37C G47U is 0.209; for G37C G47A it is 0.189; for U36G U49C it is 0.146.
The figure for U36A U61C is 0.171; for U36A G56U it is 0.177; for U36A G56C it is 0.201.
With G37A G65A, the self-cleavage was 0.252.
The figure for G37A G65U is 0.325; for G37A G65C it is 0.258; for U36C G68A it is 0.932.
The figure for U36C G68C is 0.991.
The figure for U36A C45A is 0.158; for U36A C45G it is 0.282.
For the variant U36A A52U, the self-cleavage came to 0.166.
The figure for U36A A52G is 0.178; for G37A U62C it is 0.321; for G37A U62A it is 0.225.
With U36C G56C, the self-cleavage is 0.46.
The figure for U36C G56U is 0.696; for U36C G56A it is 0.814.
Then G37A U53C, with 0.231; and U36C U53C, with 0.806.
Then U36C U53G, with 0.544.
On to U36C U53A, for which the self-cleavage stood at 0.767.
In the case of U36C U61C, the self-cleavage was 0.524.
Then U36C U61A, with 0.557.
Then U36A U46A, with 0.164; and U36A U46G, with 0.255; and U36G G41A, with 0.144.
On to U36G G41U, for which the self-cleavage came to 0.373.
The figure for U36G G41C is 0.278; for U36G A59G it is 0.238.
Take U36G A59C: the self-cleavage was determined as 0.182.
The figure for U36G A59U is 0.189; for U36G G50U it is 0.306.
On to G37A A42C, for which the self-cleavage was 0.293.
Then G37A A42U, with 0.275; and U36C G50C, with 0.895; and U36G G56A, with 0.246.
The figure for U36G G56U is 0.19; for G37A C39U it is 0.372; for G37A C39A it is 0.236.
Then U36A G65U, with 0.203; and U36A G65C, with 0.31.
With G37A U64G, the self-cleavage turned out to be 0.254.
Then G37A U64A, with 0.246; and U36C U67G, with 0.949.
Turning to U36C C45G, the self-cleavage is 0.866.
The figure for U36C C45A is 0.865; for U36A C57G it is 0.231.
Then U36A C57A, with 0.213; and U36A C57U, with 0.233; and U36A A40C, with 0.223.
Then U36A A40G, with 0.248; and C35U U46G, with 0.967; and C35U U46A, with 0.907.
As to C35U U46C, the self-cleavage was 0.976.
The figure for U36G C45G is 0.251; for U36G C45A it is 0.276; for G37A C63A it is 0.228.
The figure for G37A C63U is 0.364; for C35U U67G it is 1.03; for C35U U67C it is 0.979.
The figure for G37A U69C is 0.498.
Regarding U36C U38G, the self-cleavage worked out at 0.244.
